One experiment deals with T1, human amylin receptor (human, UniProt P30988 25-474; O60896 24-148, limits assumed).
T1 construct: whole, on cells; Calcitonin receptor plus RAMP-3 gives the amylin 3(a) receptor; membranes of Amylin 3(a)/CRE-luc cells were used; also called hAmylin-R; hAmylinR
T1 sequence (looked up) 1: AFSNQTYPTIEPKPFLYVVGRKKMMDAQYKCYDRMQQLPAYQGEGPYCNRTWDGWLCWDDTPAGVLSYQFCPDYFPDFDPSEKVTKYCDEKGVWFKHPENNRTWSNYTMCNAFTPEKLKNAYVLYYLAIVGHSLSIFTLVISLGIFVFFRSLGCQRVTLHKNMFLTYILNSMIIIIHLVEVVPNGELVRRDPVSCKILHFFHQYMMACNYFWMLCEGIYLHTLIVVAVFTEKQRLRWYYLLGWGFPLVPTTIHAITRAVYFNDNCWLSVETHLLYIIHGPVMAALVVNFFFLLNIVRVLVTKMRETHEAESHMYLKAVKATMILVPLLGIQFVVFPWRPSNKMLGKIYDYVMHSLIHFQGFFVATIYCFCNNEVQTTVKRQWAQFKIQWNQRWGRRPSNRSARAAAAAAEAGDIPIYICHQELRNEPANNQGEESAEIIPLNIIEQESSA
T1 sequence (looked up) 2: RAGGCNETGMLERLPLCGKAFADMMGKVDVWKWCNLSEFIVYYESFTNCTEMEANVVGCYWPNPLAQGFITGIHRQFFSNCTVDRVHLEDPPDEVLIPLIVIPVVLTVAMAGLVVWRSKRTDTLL
Description: SPA competition binding, displacement of 125I-rat amylin from membranes with human amylin 3(a) receptor (Assay V). In outline: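 Cell membranes were prepared by homogenisation in Na-HEPES/EDTA buffer, pH 7.4, and stored at −80° C. They were then coupled to SPA beads at 35 ng/μL final and exposed to compounds in assay buffer containing CaCl2, MgCl₂, OA and Tween20. After 120 min at 25° C, plates were counted and IC₅₀ derived.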

Experiment [1] concerns the target T2, human amylin receptor (amylin 3(a) receptor: human calcitonin receptor with RAMP-3) (human, UniProt P30988 25-474; O60896 24-148).
T2 construct: whole, on cells; also called hAmylin-R; hAmylinR
T2 sequence (looked up) 1: T1 sequence (looked up) 1
T2 sequence (looked up) 2: T1 sequence (looked up) 2
Description: SPA displacement of 125I-rat amylin, hAmylin 3(a) receptor membranes. Here is the method: The binding assay was performed using scintillation proximity assay (SPA) beads (RPNQ0001) from PerkinElmer and cell membranes from the Amylin 3(a)/CRE-luc cells (as described in Assay (II)) were used. Membranes were prepared in the following way; the cells were rinsed with PBS and incubated with Versene for approximately 5 min before harvesting. The cells were flushed with PBS and the cell-suspension was centrifuged for 5 min at 1000 rpm. Cells were homogenized (ultrathurrax) in a buffer containing 20 mM Na-HEPES and 10 mM EDTA (pH 7.4) and centrifuged at 20.000 rpm for 15 min. The resulting pellet was resuspended, homogenized and centrifuged (20.000 rpm, 15 min) in a buffer containing 20 mM Na-HEPES and 0.1 mM EDTA (pH 7.4, buffer 2). The resulting pellet was resuspended in buffer 2 and protein concentration was measured (BCA protein Assay, Pierce). The homogenate was kept cold during the whole procedure. The membranes were kept at −80° C. until use. The assay was performed in a 384 well Optiplate (PerkinElmer) in a total volume of 40 ul. Membranes were mixed with SPA beads. Final concentration of membranes 35 ng/μL final and SPA beads was 0.05 mg/well. Test-compounds were dissolved in DMSO and further diluted in assay buffer (50 mM Hepes, pH 7.4, 1 mM CaCl2, 5 mM MgCl₂, 0.1% OA and 0.02% Tween20). […] The final mixture was incubated with shaking at 400 rpm for 120 min at 25° C. prior to centrifugation (1500 rpm, 10 min). Samples were analyzed on TopCounter™ (Packard). The IC₅₀ was calculated using (one site binding competition analysis) GraphPad Prism5 as a measure of receptor affinity.

Positions count from the first letter of the chain named. Numbered stars: 1 amine (or outer) side, 2 acyl side, 3 side chain; on linkers, the order of the positions; unused ones are H or OH. Bridge positions count the residues as written; N and C are the ends. Side chains are listed from the residue outwards. Ends that are not written are not given here. * marks the point of attachment. C20 diacid = O=C(O)CCCCCCCCCCCCCCCCCCC(=O)*; γGlu = O=C(O)[C@H](CCC(=O)[*:2])N[*:1]

B1: N{-1}-[(4S)-4-carboxy-4-(19-carboxynonadecanoylamino)butanoyl]-Gly[Arg1,His14,Arg17,Pro21,Pro27]-h-amylin (peptide)
peptide: {C20 diacid-γGlu}-GRCNTATCATQRLAHFLRHSSPNFGAIPSSTNVGSNTY-NH2
modifications: disulfide 3-8
SMILES: CC[C@H](C)[C@H](NC(=O)[C@H](C)NC(=O)CNC(=O)[C@H](Cc1ccccc1)NC(=O)[C@H](CC(N)=O)NC(=O)[C@@H]1CCCN1C(=O)[C@H](CO)NC(=O)[C@H](CO)NC(=O)[C@H](Cc1c[nH]cn1)NC(=O)[C@H](CCCNC(=N)N)NC(=O)[C@H](CC(C)C)NC(=O)[C@H](Cc1ccccc1)NC(=O)[C@H](Cc1c[nH]cn1)NC(=O)[C@H](C)NC(=O)[C@H](CC(C)C)NC(=O)[C@H](CCCNC(=N)N)NC(=O)[C@H](CCC(N)=O)NC(=O)[C@@H](NC(=O)[C@H](C)NC(=O)[C@@H]1CSSC[C@H](NC(=O)[C@H](CCCNC(=N)N)NC(=O)CNC(=O)CC[C@H](NC(=O)CCCCCCCCCCCCCCCCCCC(=O)O)C(=O)O)C(=O)N[C@@H](CC(N)=O)C(=O)N[C@@H]([C@@H](C)O)C(=O)N[C@@H](C)C(=O)N[C@@H]([C@@H](C)O)C(=O)N1)[C@@H](C)O)C(=O)N1CCC[C@H]1C(=O)N[C@@H](CO)C(=O)N[C@@H](CO)C(=O)N[C@H](C(=O)N[C@@H](CC(N)=O)C(=O)N[C@H](C(=O)NCC(=O)N[C@@H](CO)C(=O)N[C@@H](CC(N)=O)C(=O)N[C@H](C(=O)N[C@@H](Cc1ccc(O)cc1)C(N)=O)[C@@H](C)O)C(C)C)[C@@H](C)O
notes: also called -1G, 1R, 14H, 17R, 21P, 27P
With B1, in the experiment with human amylin receptor, the IC50 turned out to be 0.348 nM.

B2: N^ε1-[(4S)-4-carboxy-4-(19-carboxynonadecanoylamino)butanoyl]-[Arg17,Pro21,Pro27]-h-amylin (peptide)
peptide: K([γGlu-C20 diacid])CNTATCATQRLANFLRHSSPNFGAIPSSTNVGSNTY-NH2
modifications: disulfide 2-7; N-terminus assumed
SMILES: CC[C@H](C)[C@H](NC(=O)[C@H](C)NC(=O)CNC(=O)[C@H](Cc1ccccc1)NC(=O)[C@H](CC(N)=O)NC(=O)[C@@H]1CCCN1C(=O)[C@H](CO)NC(=O)[C@H](CO)NC(=O)[C@H](Cc1c[nH]cn1)NC(=O)[C@H](CCCNC(=N)N)NC(=O)[C@H](CC(C)C)NC(=O)[C@H](Cc1ccccc1)NC(=O)[C@H](CC(N)=O)NC(=O)[C@H](C)NC(=O)[C@H](CC(C)C)NC(=O)[C@H](CCCNC(=N)N)NC(=O)[C@H](CCC(N)=O)NC(=O)[C@@H](NC(=O)[C@H](C)NC(=O)[C@@H]1CSSC[C@H](NC(=O)[C@@H](N)CCCCNC(=O)CC[C@H](NC(=O)CCCCCCCCCCCCCCCCCCC(=O)O)C(=O)O)C(=O)N[C@@H](CC(N)=O)C(=O)N[C@@H]([C@@H](C)O)C(=O)N[C@@H](C)C(=O)N[C@@H]([C@@H](C)O)C(=O)N1)[C@@H](C)O)C(=O)N1CCC[C@H]1C(=O)N[C@@H](CO)C(=O)N[C@@H](CO)C(=O)N[C@H](C(=O)N[C@@H](CC(N)=O)C(=O)N[C@H](C(=O)NCC(=O)N[C@@H](CO)C(=O)N[C@@H](CC(N)=O)C(=O)N[C@H](C(=O)N[C@@H](Cc1ccc(O)cc1)C(N)=O)[C@@H](C)O)C(C)C)[C@@H](C)O
notes: also called 17R, 21P, 27P
B2: the IC50 in the experiment with human amylin receptor stood at 0.443 nM.

B3: N^α1-[2-[2-[2-[[2-[2-[2-[[(4S)-4-carboxy-4-(19-carboxynonadecanoylamino)butanoyl]amino]ethoxy]ethoxy]acetyl]amino]ethoxy]ethoxy]acetyl]-[Glu14,Arg17,Pro21,Pro27 … (peptide)
peptide: KCNTATCATQRLAEFLRHSSPNFGAIPSSTNVGSNTY
modifications: C20 diacid-gGlu-2xOEG on alpha amino group of N-terminal Lys 1; Cys2-Cys7 disulfide; C-terminal amide
notes: also called 19; compound 19
Take B3: the IC50 in experiment [1] was 0.556 nM.

B4: N^α1-[(4S)-4-carboxy-4-(19-carboxynonadecanoylamino)butanoyl]-[Arg17,Pro21,Pro27,His34]-h-amylin (peptide)
peptide: B3 peptide with E14N, S34H
modifications: C20 diacid-gGlu on alpha amino group of N-terminal Lys 1; Cys2-Cys7 disulfide; C-terminal amide
notes: also called 40; compound 40
For B4, in experiment [1], the IC50 came out at 0.549 nM.
